For the assay, the target named is androgen receptor (UniProt P10275). The assay is described as follows: cell-based or functional assay.

The results in this text go back to US20040115656A1.

Sequence of UniProt P10275 (P10275 whole entry): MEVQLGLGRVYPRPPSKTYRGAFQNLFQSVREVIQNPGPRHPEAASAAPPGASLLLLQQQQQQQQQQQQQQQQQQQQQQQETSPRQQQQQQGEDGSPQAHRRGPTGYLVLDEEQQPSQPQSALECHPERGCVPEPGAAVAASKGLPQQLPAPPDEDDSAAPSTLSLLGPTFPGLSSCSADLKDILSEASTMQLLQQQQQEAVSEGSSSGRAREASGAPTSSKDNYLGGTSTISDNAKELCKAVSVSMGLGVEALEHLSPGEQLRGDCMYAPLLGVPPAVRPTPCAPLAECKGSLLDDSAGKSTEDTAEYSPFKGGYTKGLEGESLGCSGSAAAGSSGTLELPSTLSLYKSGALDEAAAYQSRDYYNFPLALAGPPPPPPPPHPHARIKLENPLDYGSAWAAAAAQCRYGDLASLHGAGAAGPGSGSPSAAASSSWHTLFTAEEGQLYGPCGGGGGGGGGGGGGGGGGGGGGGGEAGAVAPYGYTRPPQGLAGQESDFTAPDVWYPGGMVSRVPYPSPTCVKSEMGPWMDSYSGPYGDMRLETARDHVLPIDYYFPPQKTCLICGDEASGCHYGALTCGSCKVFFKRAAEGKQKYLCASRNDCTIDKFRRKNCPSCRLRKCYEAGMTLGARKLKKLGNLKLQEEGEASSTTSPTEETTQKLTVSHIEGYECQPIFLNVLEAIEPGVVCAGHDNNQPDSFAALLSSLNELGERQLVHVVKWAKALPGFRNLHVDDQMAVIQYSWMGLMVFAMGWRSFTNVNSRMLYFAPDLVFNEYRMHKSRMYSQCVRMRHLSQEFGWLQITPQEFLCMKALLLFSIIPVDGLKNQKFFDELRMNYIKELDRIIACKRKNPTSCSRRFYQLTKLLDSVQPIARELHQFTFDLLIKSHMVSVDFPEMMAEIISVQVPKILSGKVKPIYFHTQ

On to “human androgen receptor down-regulatory-associated protein”, for which the luciferase activity of AFP promoter (ARE) reporter in MCF7 and G2 cells (times (relative to the control reporter)) worked out at 2.
